The values below come from PMC3470543, “Effects of the Missense Mutations in Canine BRCA2 on BRC Repeat 3 Functions and Comparative Analyses between Canine and Human BRC Repeat 3” (PLoS ONE, 2012).

To fix the notation:
B1: Gal4-DBD-fused wild-type canine BRC3 [canine] / VP16 transactivation domain-fused canine RAD51 [canine] (parent complex)
chain 1: GQNIKDFDTFYLSFQTASRKNIRVSKESLNKARSLLNQKWTEEELNNFSDSLNSELLPGIDIKKTDISNHEVI
chain 2: MAMQMQLEANADTSVEEESFGPQPISRLEQCGINANDVKKLEEAGFHTVEAVAYAPKKELISIKGISEAKADKILTEAAKLVPMGFTTATEFHQRRSEIIQITTGSKELDKLLQGGIETGSITEMFGEFRTGKTQICHTLAVTCQLPIDRGGGEGKAMYIDTEGTFRPERLLAVAERYGLSGSDVLDNVAYARGFNTDHQTQLLYQASAMMVESRYALLIVDSATALYRTDYSGRGELSARQMHLARFLRMLLRLADEFGVAVVITNQVVAQVDGAAMFAADPKKPIGGNIIAHASTTRLYLRKGRGETRICKIYDSPCLPEAEAMFAINADGVGDAKD
B2: Gal4-DBD-fused wild-type canine BRC3 [canine] / VP16 transactivation domain-fused human RAD51 [human] (parent complex)
chain 1: B1 chain 1
chain 2: B1 chain 2 with S62N, T76A, G194A

Changes are numbered by the printed parent chain.

One test covers variants of B1. Description: mammalian two-hybrid assay; HeLa cells; luciferase activity determined 48 h after transfection; n = 3; read off a plot.
Take chain 1 T16P: the response was approximately 3.5 Firefly/Renilla. Regarding chain 1 K26R, the response was approximately 120 Firefly/Renilla.

In another test the parent is B2. Described as above.
With chain 1 T16P, the response is approximately 2.2 Firefly/Renilla. Same read-out and setting: as for chain 1 K26R, the figure is approximately 34 Firefly/Renilla.
